From PMC11443517 come the findings set out here.

One assay has as its target eDEN1-nanoBiT. Briefly: split reporter (BiFC, NanoBiT); intramolecular split nanoluciferase of purified eDEN1-nanoBiT, luminescence at 450 nm falls on binding; titration with the ligand; PBS pH 7.4, 0.2 mg/mL ovalbumin, 1 mM DTT, no Brij-35, 70 uM furimazine, 25 C, 96-well plate; single-site fit.
Assay [1] addresses eDEN1-FRET-D10N construct lacking the C163A mutation. Briefly: FRET or BRET; intramolecular FRET of 50 nM sensor (ratio of emission at 475 nm to 525 nm, excitation 440 nm) titrated with free or precursor Nedd8, binding competes with the reporter interaction; PBS pH 7.4, 0.05% Brij-35, 0.2 mg/mL ovalbumin, 1 mM DTT; single-site fit. On the technique in general: In BRET a luciferase serves as donor, and the signal depends on an acceptor being close.

The target in another assay is eDEN1-FRET. The assay is described as above.
The target in assay [2] is eDEN1-FRET-D10N with the Wp2 domain replaced by Wp1. The description is as above.
Another assay addresses eDEN1-FRET-D10N. Described as above.

“free Nedd8 (from UniProt Q15843 1-76) (natural protein)”: the Kd worked out at 3.2 µM in the assay with eDEN1-nanoBiT; 50.5 µM in assay [1]; 7.61 µM with eDEN1-FRET; 6.03 µM in assay [2]; 0.324 µM in the assay with eDEN1-FRET-D10N.
With “precursor Nedd8 (from UniProt Q15843 1-81) (natural protein)”, the Kd with eDEN1-nanoBiT is 270 µM. Besides, the fold selectivity for free Nedd8 compared to precursor Nedd8 in the assay with eDEN1-FRET-D10N was 444 fold.

By Kd is commonly meant the constant that tells how readily two partners part at equilibrium.
